The text below walks through data of US20240343820A1 (KITE PHARMA, published 2024).

As a reminder, the Kd is the constant that tells how readily two partners part at equilibrium. For orientation: koff means a measure of how fast the partners let go of each other. Low values mean slow dissociation, high ones fast dissociation. Broadly, the kon is a measure of how fast the partners come together.

To fix the notation:
T1: SLC20A1 (PIT1) receptor (UniProt Q8WUM9 1-679, limits assumed)
T1 construct: whole, on cells; Endogenous on K562 cells (a human cell line)
T1 sequence (looked up): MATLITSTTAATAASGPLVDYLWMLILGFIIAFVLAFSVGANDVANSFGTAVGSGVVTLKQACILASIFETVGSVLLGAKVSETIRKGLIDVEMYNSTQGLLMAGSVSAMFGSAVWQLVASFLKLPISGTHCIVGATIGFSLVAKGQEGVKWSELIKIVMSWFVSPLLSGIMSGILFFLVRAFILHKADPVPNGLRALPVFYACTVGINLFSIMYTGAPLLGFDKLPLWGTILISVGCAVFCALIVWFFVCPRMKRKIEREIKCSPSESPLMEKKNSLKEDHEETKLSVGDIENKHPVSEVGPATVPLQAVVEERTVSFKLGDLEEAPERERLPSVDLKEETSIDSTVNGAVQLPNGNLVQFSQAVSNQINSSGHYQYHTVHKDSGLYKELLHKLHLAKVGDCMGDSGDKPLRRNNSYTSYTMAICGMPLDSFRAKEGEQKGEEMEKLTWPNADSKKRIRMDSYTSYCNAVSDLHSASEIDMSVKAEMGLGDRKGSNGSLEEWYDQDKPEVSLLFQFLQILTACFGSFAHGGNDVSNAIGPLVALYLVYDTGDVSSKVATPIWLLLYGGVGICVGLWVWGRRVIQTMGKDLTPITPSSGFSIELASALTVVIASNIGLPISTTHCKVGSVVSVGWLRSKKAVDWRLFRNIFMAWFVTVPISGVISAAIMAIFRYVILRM

B1: 40A6 (antibody, V domains shown)
VH: EVQLVESGGGLVKPGGSLKLSCAASGFTFSSYVLSWVRQIPEKRLEWVATINSGGSYTYYPDSVKGRFTISRDNAKNTLYLQMSSLRSEDTAIYYCARHLIYYDYDGYYFDTWGQGTSLTVSS
VL: DVVMTQTPLSLPVSLGDQASISCRSSQTLVHSNGNIYLHWYLQKPGQSPKLLIYKVSNRFSGVPDRFSGSGSGTDFTLKISRVETEDLGIYFCSQTTHVPPTFGGGTKLEIK
notes: Anti-GALV gp70; One id for the hybridoma supernatant and the recombinant murine IgG2a antibody; also called 40A6-HC / 40A6-LC
B2: 35C11 (antibody, V domains shown)
VH: QVQLQQSGPELVRPGVSVKISCKVSGYTFTDYTMHWVKQSHAKSLEWIGLISTYSGKTNYNQKLKDKATMTVDKSSSTAYMELARLTSEDSAIFYCARGGLRDAMDYWGQGTSVTVSS
VL: DIVLTQSPASLAVSLGQGATISCRASESVDSYGNSFMHWYQQKPGQPPKLLIYRASNLESGIPARFSGSGSGTDFTLTINPVEADDVATYYCLQSNEDPRTFGGGTKLEIK
notes: also called 35C11-HC / 35C11-LC
B3: 40A3 (antibody, V domains shown)
VH: DVQLQESGPDLVKPSQSLSLTCTVTDFSITSDYTWHWVRQFPGNKLEWMAYIHYSGGTNYNPSLRSRISITRDTSKNQFFLHMNSVTTEDTATYYCLYYGSRDAVDYWGQGTSVTVSS
VL: QIVLTQSPAIMSASPGEKVTMTCSTSSSVTYMHWYQQKSGTSPKRWIYDTSKLASGVPARFSGSGSGTSYSLTISSMEAEDAATYYCQQWSSSPYTFGGGTKLEIK
notes: Anti-GALV gp70; One id for the hybridoma supernatant and the recombinant murine IgG2a antibody; also called 40A3-HC / 36H3-LC
B4: 8G8 (antibody, V domains shown)
VH: QVQLQQPGAELVRPGSSVKLSCKASGYTFTNYWMDWVKQRPGQGLEWIGNIYPSDSETHYNQNFKDKATLTVDKSSSTAYMQLSSLTSEDSAVYYCARDYYWGQGTTLTVSS
VL: QAVVTQESALTTSPGETVTLTCRSSTGAVTRSNYANWVQEKPDHLFTGLIGGTNNRALGVPARFSGSLIGDKAALTITGAQTEDEAIYFCALWYSNHLVFGGGTKLTVLQ
notes: Anti-GALV gp70; One id for the hybridoma supernatant and the recombinant murine IgG2a antibody; also called 8G8-HC2 / 8G8-LC2
B5: 2D3 (antibody, V domains shown)
VH: B4 VH with N63K, K65R, S75P
VL: B4 VL with R31T, T82I
notes: Anti-GALV gp70; One id for the hybridoma supernatant and the recombinant murine IgG2a antibody; also called 2D3-HC1 / 2D3-LC1
B6: 9G11 (antibody, V domains shown)
VH: B4 VH with N50H, N61I, N63K, S77N
VL: B4 VL with R31T, L58P, N96S, H97Q
notes: Anti-GALV gp70; One id for the hybridoma supernatant and the recombinant murine IgG2a antibody; also called 9G11-HC / 9G11-LC
B7: 9A1 (antibody, V domains shown)
VH: B4 VH with K19R, N31S, N63K
VL: B4 VL with L58P
notes: Anti-GALV gp70; One id for the hybridoma supernatant and the recombinant murine IgG2a antibody; also called 9A1-HC3 / 9A1-LC1
B8: 4F1 (antibody, V domains shown)
VH: B4 VH with N31S, V37M, N50H, N63K, K67R, T78A, Y80F
VL: B4 VL with R31T, L58P
notes: Anti-GALV gp70; One id for the hybridoma supernatant and the recombinant murine IgG2a antibody; also called 4F1-HC / 4F1-LC1
B9: huIgG1 monoFc tagged GALV gp70 protein (residues 505-616) (Fc fusion)
chain: not shown
notes: Residues are numbered according to Uniprot P21415; also called gp70 (505-616); coiled-coil (CC) domain of GALV gp70
B10: huIgG1 monoFc tagged GALV gp70 protein (residues 42-616) (Fc fusion)
chain: TSLQNKNPHQPMTLTWQVLSQTGDVVWDTKAVQPPWTWWPTLKPDVCALAASLESWDIPGTDVSSSKRVRPPDSDYTAAYKQITWGAIGCSYPRARTRMASSTFYVCPRDGRTLSEARRCGGLESLYCKEWDCETTGTGYWLSKSSKDLITVKWDQNSEWTQKFQQCHQTGWCNPLKIDFTDKGKLSKDWITGKTWGLRFYVSGHPGVQFTIRLKITNMPAVAVGPDLVLVEQGPPRTSLALPPPLPPREAPPPSLPDSNSTALATSAQTPTVRKTIVTLNTPPPTTGDRLFDLVQGAFLTLNATNPGATESCWLCLAMGPPYYEAIASSGEVAYSTDLDRCRWGTQGKLTLTEVSGHGLCIGKVPFTHQHLCNQTLSINSSGDHQYLLPSNHSWWACSTGLTPCLSTSVFNQTRDFCIQVQLIPRIYYYPEEVLLQAYDNSHPRTKREAVSLTLAVLLGLGITAGIGTGSTALIKGPIDLQQGLTSLQIAIDADLRALQDSVSKLEDSLTSLSEVVLQNRRGLDLLFLKEGGLCAALKEECCFYIDHSGAVRDSMKKLKEKLDKRQLERQKSQN
notes: Residues are numbered according to Uniprot P21415; also called gp70 (42-616); RBD+CC domains
B11: huIgG1 monoFc tagged GALV gp70 protein (residues 42-474) (Fc fusion)
chain: TSLQNKNPHQPMTLTWQVLSQTGDVVWDTKAVQPPWTWWPTLKPDVCALAASLESWDIPGTDVSSSKRVRPPDSDYTAAYKQITWGAIGCSYPRARTRMASSTFYVCPRDGRTLSEARRCGGLESLYCKEWDCETTGTGYWLSKSSKDLITVKWDQNSEWTQKFQQCHQTGWCNPLKIDFTDKGKLSKDWITGKTWGLRFYVSGHPGVQFTIRLKITNMPAVAVGPDLVLVEQGPPRTSLALPPPLPPREAPPPSLPDSNSTALATSAQTPTVRKTIVTLNTPPPTTGDRLFDLVQGAFLTLNATNPGATESCWLCLAMGPPYYEAIASSGEVAYSTDLDRCRWGTQGKLTLTEVSGHGLCIGKVPFTHQHLCNQTLSINSSGDHQYLLPSNHSWWACSTGLTPCLSTSVFNQTRDFCIQVQLIPRIYYYPEE
notes: also called gp70 (42-474)

Residue numbers refer to the chain shown, from its start.

The target of one test is B11. Description: BLI Octet Red96; antibody on AMC biosensor, 100 nM monoFc-gp70(42-474) analyte.
Turning to B1, the equilibrium dissociation constant (Kd) is 0.0175 nM, the dissociation rate constant (koff) came to 6.72e-07 s⁻¹ and the kon was 38300 M⁻¹ s⁻¹.

The molecule B2 returned a Kd of 0.0122 nM, a dissociation rate constant (koff) of 6.29e-07 s⁻¹ and a kon of 51500 M⁻¹ s⁻¹.

Turning to B3, binding was characterised by a dissociation constant (Kd) of 0.00524 nM, the koff came out at 6e-07 s⁻¹ and the kon came out at 114000 M⁻¹ s⁻¹.

In turn, B4 showed an equilibrium dissociation constant (Kd) of 0.193 nM, a koff of 6.31e-05 s⁻¹ and a kon of 328000 M⁻¹ s⁻¹.

Consider B5, for which the Kd turned out to be 1.71 nM, the koff turned out to be 0.00048 s⁻¹ and the kon turned out to be 281000 M⁻¹ s⁻¹.

For the molecule B6, the dissociation constant (Kd) stood at 0.704 nM, the koff came to 0.000257 s⁻¹ and the kon is 366000 M⁻¹ s⁻¹.

B7 had a dissociation constant (Kd) of 1.4 nM, an off-rate (koff) of 0.000447 s⁻¹ and a kon of 318000 M⁻¹ s⁻¹.

With B8, the Kd came out at 1.69 nM, the koff turned out to be 0.000607 s⁻¹ and the association rate constant (kon) amounted to 359000 M⁻¹ s⁻¹.

For another test, the target named is B9. Description: indirect ELISA, hybridoma supernatant on coated monoFc-tagged gp70 (505-616). For orientation: ELISA stands for enzyme-linked immunosorbent assay.
In the case of B3, the binding result is “no binding”.

Turning to B6, the binding result was “no binding”.

Consider B8, for which the binding result is recorded as “no binding”.

In a further test the target is T1, SLC20A1 (PIT1) receptor. Description: flow cytometry, monoFc-tagged gp70 (505-616) on K562 cells (endogenous SLC20A1), PE anti-human Fc secondary.
For the molecule B9, the binding result is reported as “no binding (tested: 10.00 ug/100ul)”.

A further test concerns the target T1, SLC20A1 (PIT1) receptor. Briefly: flow cytometry, monoFc-tagged gp70 protein on K562 cells (endogenous SLC20A1), PE anti-human Fc secondary; CHO as negative cells. (In general: Flow cytometry measures light scatter and fluorescence of single cells or particles in a stream.)
For the molecule B10, the binding result was “binds”.

With B11, the binding result was “binds”.
